In article PMC4355975, “PAT1 inversely regulates the surface Amyloid Precursor Protein level in mouse primary neurons” (BMC Neuroscience, 2015):

Columns and labels:
[1] = target: T1, Amyloid Precursor Protein (APP) (mouse (endogenous in primary cortical …, UniProt P12023 18-770)); assay: co-IP; total extracts of mouse primary cortical neurons at 6 DIV; APP precipitated with anti-APP Cter polyclonal antibody and protein A Sepharose; IP buffer Hepes 10 mM, NaCl 150 mM, CaCl2 2 mM, 1% Triton X 100, 4°C; blots for APP and PAT1; details: partners not purified
T1 construct: Amyloid precursor protein, endogenous in mouse primary cortical neurons; precipitated with the anti-APP Cter polyclonal antibody, detected with anti-APP-Nter A4; In the cell surface co-IP the surface pool was labelled with sulfo-NHS-biotin; source: endogenous, mouse primary cortical neurons (E16, Swiss strain), in lysate

[2] = target: T1, Amyloid Precursor Protein (APP); assay: co-IP; after cell surface biotinylation of mouse primary cortical neurons at 6 DIV (Cell surface Co-IP); APP precipitated with anti-APP Cter polyclonal antibody; blots for APP and PAT1; details: partners not purified

B1: PAT1 (Protein interacting with APP tail 1) (natural protein, UniProt Q9DAX9 1-585, looked up)
chain: MAAVELEWIPETLYNTAISAVVDNYIRSRRDIRSLPENIQFDVYYKLYQQGRLCQLGSEFCELEVFAKVLRALDKRHLLHHCFQALMDHGVKVASVLAYSFSRRCSYIAESDAAVKEKAIQVGFVLGGFLSDAGWYSDAEKVFLSCLQLCTLHDEMLHWFRAVECCVRLLHVRNGNCKYHLGEETFKLAQTYMDKLSKHGQQANRAALYGELCALLFAKSHYDEAYKWCVEAMKEITAGLPVKVVVDVLRQASKACVVKREFKKAEQLIKHAVYLARDHFGSKHPKYSDTLLDYGFYLLNVDNICQSVAIYQAALDIRQSVFGGKNIHVATAHEDLAYSSYVHQYSSGKFDNALFHAERAIGIITHILPEDHLLLASSKRVKALILEEIAIDCHNKETEQRLLQEAHDLHLSSLQLAKKAFGEFNVQTAKHYGNLGRLYQSMRKFKEAEEMHIKAIQIKEQLLGQEDYEVALSVGHLASLYNYDMNQYENAEKLYLRSIAIGKKLFGEGYSGLEYDYRGLIKLYNSIGNYEKVFEYHNVLSNWNRLRDRQYSVTDALEDVSSSPQSTEEVVQSFLMAQNVEGPSC
notes: PAT1 / APPBP2, endogenous in mouse primary cortical neurons; detected by blot with mAb26; also called Ara67; source: endogenous, mouse primary cortical neurons (E16, Swiss strain), in lysate
In the case of B1, the “ratio of APP to PAT1 in the immunoprecipitate (arbitrary units)” value [1] is reported as 2.7 AU and the “ratio of APP to PAT1 in the immunoprecipitate (arbitrary units)” value [2] is reported as 6 AU.
